Residue numbers refer to the chain shown, from its start. Where two headings read alike, the source gives them in different places.
Key:
human properdin [1] = target: T1, human properdin (human, UniProt P27918 28-469); assay: ELISA, human properdin coated on plate
Procedure: (§1) Polystyrene microtiter plates were coated with human (2.0 μg/50 μl per well) properdin in phosphate buffered saline (PBS) overnight at 4° C. After aspirating the properdin solution, the wells were blocked with PBS containing 1% bovine serum albumin (BSA) (Sigma-Aldrich, St. Louis, Mo.) for 2 hours at room temperature. Wells without peptide or properdin coating served as background controls. Aliquots of the test antibody in blocking solution were added to the properdin coated wells and allowed to incubate for 1 hour to allow binding to occur. Following a 1 hour incubation at room temperature, the plate was rinsed with PBS five times and incubated with 1:2000 diluted anti-properdin polyclonal antibody.

human properdin [2] = target: T1, human properdin; assay: cell-based or functional assay
human properdin [3] = target: T1, human properdin; assay: cell-based or functional assay; remark: listed apart in the source
human properdin [4] = target: T1, human properdin; assay: cell-based or functional assay; remark: listed apart in the source
human properdin [5] = target: T1, human properdin; assay: cell-based or functional assay; remark: listed apart in the source
human properdin [6] = target: T1, human properdin; assay: ELISA, human properdin coated on the plate, OD 450 nm
Procedure: as §1

human properdin [7] = target: T1, human properdin; assay: ELISA, properdin coated on the plate, OD 450 nm
human properdin [8] = target: T1, human properdin; assay: ELISA, properdin coated on the plate, OD 450 nm; remark: listed apart in the source
human properdin [9] = target: T1, human properdin; assay: cell-based or functional assay; remark: listed apart in the source
human properdin [10] = target: T1, human properdin; assay: cell-based or functional assay; remark: listed apart in the source

T1 sequence (P27918 28-469 limits assumed): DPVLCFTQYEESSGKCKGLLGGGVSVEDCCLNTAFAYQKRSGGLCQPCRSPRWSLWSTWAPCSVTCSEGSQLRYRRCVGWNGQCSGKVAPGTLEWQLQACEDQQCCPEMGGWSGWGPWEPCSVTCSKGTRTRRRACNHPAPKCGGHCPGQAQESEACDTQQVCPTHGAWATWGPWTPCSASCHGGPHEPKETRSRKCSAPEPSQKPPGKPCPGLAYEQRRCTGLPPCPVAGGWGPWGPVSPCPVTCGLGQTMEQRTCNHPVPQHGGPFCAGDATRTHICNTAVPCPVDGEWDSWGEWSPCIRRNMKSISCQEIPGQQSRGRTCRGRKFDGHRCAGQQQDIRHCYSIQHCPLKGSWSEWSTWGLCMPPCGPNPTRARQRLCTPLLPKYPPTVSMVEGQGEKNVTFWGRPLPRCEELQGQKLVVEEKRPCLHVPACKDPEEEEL

B1: NMT15 (antibody, V domains shown)
VH: QVQLVQSAPEVAKPGTSVKMSCKASGYIFTNYPIHWVKQAPGQGLEWIGFIDPGGGYDEPDERFRDRATLTADKSTSTAYMELSSLRSEDTAIYYCARRGGGYYLDYWGQGTLVTVSS
VL: DIQMTQSPSSLSASLGDRVTITCRASQDISFFLNWYQQKPDGTVKLLIYYTSRYHSGVPSRFSGSGSGTDFTLTISSLQPEDFATYFCQHGNTLPWTFGQGTKLEIK
For B1, the “Binding Affinity” value (human properdin [1]) was 270 pM, the “IC50 (read off the curve): properdin deposition (AP activation on LPS, 10% normal human serum)” value (human properdin [2]) was roughly 0.8 µg/mL and the “IC50 (read off the curve): properdin deposition (AP C3 convertase formation assay)” value (human properdin [3]) was roughly 0.4 µg/mL. For the same binder, the “IC50 (read off the curve): C3b deposition (AP activation on LPS, normal human serum)” value (human properdin [4]) was roughly 0.5 µg/mL, the “MAC (µg/Ml); inhibition of MAC formation” value (human properdin [5]) was 1 µg/mL and the “Properdin (µg/mL); inhibition of properdin deposition” value (shortened to “Properdin (µg/mL); inhibition”) (human properdin [5]) was 2 µg/mL. For the same binder, the “EC50 (read off the curve)” value (human properdin [6]) was 0.2 to 0.3 nM.

B2: NMT18 (antibody, V domains shown)
VH: EVQLVQSGAEVKKPGASVKVSCKASGYIFTNYPIHWVRQAPGQGLEWMGFIDPGGGYDEPDERFRDRVTMTADTSTSTAYMELSSLRSEDTAVYYCARRGGGYYLDYWGQGTTVTVSS
VL: B1 VL with L15V, D41G, G42K, T43A, V44P, F87Y, N92Q
For B2, the “Binding Affinity” value (human properdin [1]) was 289 pM, the “IC50 (read off the curve): properdin deposition (AP activation on LPS, 10% normal human serum)” value (human properdin [2]) was roughly 0.9 µg/mL and the “IC50 (read off the curve): C3b deposition (AP activation on LPS, normal human serum)” value (human properdin [4]) was roughly 0.5 µg/mL. For the same binder, the “MAC (µg/Ml); inhibition of MAC formation” value (human properdin [5]) was 9 µg/mL, the “Properdin (µg/mL); inhibition” value (human properdin [5]) was 3 µg/mL and the “EC50 (read off the curve)” value (human properdin [6]) was roughly 0.3 nM.

B3: NMT17 (antibody, V domains shown)
VH: B2 VH
VL: B1 VL with L15V, D41G, G42K, T43A, V44P, F87Y, N92S
For B3, the “Binding Affinity” value (human properdin [1]) was 283 pM, the “IC50 (read off the curve): properdin deposition (AP activation on LPS, 10% normal human serum)” value (human properdin [2]) was roughly 0.9 µg/mL and the “IC50 (read off the curve): C3b deposition (AP activation on LPS, normal human serum)” value (human properdin [4]) was roughly 0.7 µg/mL. The “MAC (µg/Ml); inhibition of MAC formation” value (human properdin [5]) was 5 µg/mL, the “Properdin (µg/mL); inhibition” value (human properdin [5]) was 4 µg/mL and the “EC50 (read off the curve)” value (human properdin [6]) was roughly 0.3 nM.

B4: NMT28 (antibody, V domains shown)
VH: B2 VH with T113L
VL: B1 VL with L15V, D41G, G42K, T43A, V44P, F87Y, N92Q, L104V
For B4, the “EC50 (read off the curve)” value (human properdin [7]) was roughly 0.06 nM, the “IC50 (read off the curve): C3b deposition (AP C3 convertase formation assay)” value (human properdin [3]) was roughly 0.3 µg/mL and the “IC50 (read off the curve): properdin deposition (AP C3 convertase formation assay)” value (human properdin [3]) was roughly 0.3 µg/mL.

B5: NMT31 (antibody, V domains shown)
VH: EVTLKESGPTLVKPTQTLTLTCTFSGFSLSTSGMGVGWIRQPPGKALEWLAHIWWDDVKSYNPALKSRLTITKDTSKNQVVLTMTNMDPVDTATYYCARIGDGYYSFDYWGQGTTVTVSS
VL: DIQMTQSPSSLSASVGDRVTITCRASQDVSDAVAWFQQKPGKAPKLLIYSPSYRYTGVPSRFSGSGSGTDFTFTISSLQPEDLATYYCQQHYSTPWTFGQGTKLEIK
B5 was tested, and the “EC50 (read off the curve)” value (human properdin [8]) was roughly 0.06 nM and the “IC50 (read off the curve): C3b deposition (sheet title: LPS C3b 10% NHS)” value (shortened to “IC50 … (sheet title: LPS C3b 10% NHS)”) (human properdin [9]) was roughly 0.7 µg/mL.

B6: NMT29 (antibody, V domains shown)
VH: B5 VH
VL: B5 VL with F36Y, F73L, L83F
B6 was tested, and the “EC50 (read off the curve)” value (human properdin [8]) was roughly 0.05 nM and the “IC50 … (sheet title: LPS C3b 10% NHS)” value (human properdin [9]) was roughly 0.9 µg/mL.

B7: NMT30 (antibody, V domains shown)
VH: B5 VH with M84I, M87V, V116L
VL: B5 VL with L83F
With B7 the “EC50 (read off the curve)” value (human properdin [8]) was roughly 0.04 nM and the “IC50 … (sheet title: LPS C3b 10% NHS)” value (human properdin [9]) was roughly 0.4 µg/mL.

B8: NMT30-100 (antibody, V domains shown)
VH: B5 VH with M84I, M87V, V116L
VL: B5 VL with L83F
B8 was tested, and the “IC50 … (sheet title: LPS C3b 10% NHS)” value (human properdin [10]) was roughly 0.6 µg/mL.

B9: NMT30-101 (antibody, V domains shown)
VH: B5 VH with M84I, M87V, V116L
VL: B5 VL with L83F
In the case of B9, the “IC50 … (sheet title: LPS C3b 10% NHS)” value (human properdin [10]) is reported as roughly 0.6 µg/mL.

B10: NMT31-100 (antibody, V domains shown)
VH: B5 VH
VL: B5 VL
For B10, the “IC50 … (sheet title: LPS C3b 10% NHS)” value (human properdin [10]) was roughly 0.5 µg/mL.

B11: NMT31-101 (antibody, V domains shown)
VH: B5 VH
VL: B5 VL
For B11, the “IC50 … (sheet title: LPS C3b 10% NHS)” value (human properdin [10]) was roughly 0.5 µg/mL.

— patent publication US20230073274A1 (NOVELMED THERAPEUTICS, published 2023)
